Experimental data from PMC3605045, “GH1-family 6-P-β-glucosidases from human microbiome lactic acid bacteria” (Acta Crystallographica Section D: Biological Crystallography, 2013).

Substrate: O=P(O)(O)OC[C@H]1O[C@@H](Oc2ccccc2CO)[C@H](O)[C@@H](O)[C@@H]1O
Experiment: purified protein
Format: biochemical, Streptococcus mutans
Conditions: 0.1 M HEPES-NaOH pH 8.0, 2 mM NADP+, 298 K, SeMet-labelled enzyme 0.02 µM, substrate 10-2000 µM, 25.0 °C

B1: SmBgl (Streptococcus mutans UA159) (protein)
chain: MSKLPENFLWGGAVAAHQLEGGWQEGGKGISVADVMTAGRHGVAREITAGVLEGKYYPNHEAIDFYHHYKEDVKLFAEMGFKCFRTSIAWTRIFPKGDEAEPNEAGLQFYDDLFDECLKYGIEPVVTLSHFELPYHLVTEYGGFTNRKVIDFFVHFAEVCFRRYKDKVKYWMTFNEINNQANYQEDFAPFTNSGIVYKEGDDREAIMYQAAHYELVASARAVKIGHAINPNLNIGCMVAMCPIYPATCNPKDILMAQKAMQKRYYFADVHVHGFYPEHIFKYWERKAIKVDFTERDKKDLFEGTVDYIGFSYYMSFVIDAHRENNPYYDYLETEDLVKNPYVKASDWDWQIDPQGLRYALNWFTDMYHLPLFIVENGFGAIDQVEADGMVHDDYRIDYLGAHIKEMIKAVDEDGVELMGYTPWGCIDLVSAGTGEMRKRYGFIYVDKDDEGKGTLKRSPKLSFNWYKEVIASNGDDI
notes: full length, 477 residues, ~55 kDa, homodimer; His6 cut by TEV, SNA- left at N-terminus; E. coli BL21 (DE3) Magic, pMCSG7; SeMet-labelled protein in kinetic assays
Protein B1 has a Km of 1020 ± 70 µM.
